{
  "source": "paper PMC4975007",
  "target": "Dbp2 (MBP-TEV-Dbp2 construct) (Saccharomyces cerevisiae, UniProt P24783 1-546)",
  "sequence (P24783 whole entry)": "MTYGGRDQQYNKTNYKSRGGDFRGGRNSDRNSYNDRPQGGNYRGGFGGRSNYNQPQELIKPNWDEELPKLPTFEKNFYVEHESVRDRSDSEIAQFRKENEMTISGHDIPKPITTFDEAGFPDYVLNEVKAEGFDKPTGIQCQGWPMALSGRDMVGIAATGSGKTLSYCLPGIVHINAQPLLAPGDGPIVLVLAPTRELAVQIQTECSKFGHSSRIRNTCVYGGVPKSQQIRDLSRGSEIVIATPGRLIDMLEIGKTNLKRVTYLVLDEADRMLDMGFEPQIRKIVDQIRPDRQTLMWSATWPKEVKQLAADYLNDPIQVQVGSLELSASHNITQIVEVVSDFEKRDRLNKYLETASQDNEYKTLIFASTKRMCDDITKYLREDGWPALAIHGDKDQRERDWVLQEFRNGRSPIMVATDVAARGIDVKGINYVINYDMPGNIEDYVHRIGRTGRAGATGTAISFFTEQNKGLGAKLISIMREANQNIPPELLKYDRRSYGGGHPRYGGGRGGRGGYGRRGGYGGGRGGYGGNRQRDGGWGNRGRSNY",
  "assay": "fluorescence anisotropy",
  "data": [
    {"binder": "AGCACCGUAAAGACGC (ssRNA)", "note": "[16 nt ssRNA, 6-FAM]", "values": [
      {"measurement": "Kd", "value": 38, "unit": "nM"}
    ]}
  ]
}
